Experiment [1] addresses Fibronectin (purified from horse serum) (horse) (UniProt Q28377). Nature of the experiment: cell-based or functional assay.
Experiment [2] addresses T1, Syndecan-1 overexpressed on T98G glioblastoma cells (mouse, UniProt P18828 23-311).
T1 construct: whole, on cells; also called T98G:S1
T1 sequence (looked up): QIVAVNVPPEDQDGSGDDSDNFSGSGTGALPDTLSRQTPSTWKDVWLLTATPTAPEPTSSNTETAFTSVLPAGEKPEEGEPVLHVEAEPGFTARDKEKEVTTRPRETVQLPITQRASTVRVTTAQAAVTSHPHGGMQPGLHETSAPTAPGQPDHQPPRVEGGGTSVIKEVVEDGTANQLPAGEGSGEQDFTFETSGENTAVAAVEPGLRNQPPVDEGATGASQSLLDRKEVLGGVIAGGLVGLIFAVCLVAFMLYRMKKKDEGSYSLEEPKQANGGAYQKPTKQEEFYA
Nature of the experiment: GST pull-down of cell surface-bound FNIII13 and western blot, immunofluorescence.

Where [3] appears, read: scale: relative increase in cpm over cells plated on fibronectin.

Results on three molecules are retold here after patent publication US20040259781A1 (Novartis, published 2004).

Fibronectin (purified from horse serum) (horse), sequence (Q28377 32-2477): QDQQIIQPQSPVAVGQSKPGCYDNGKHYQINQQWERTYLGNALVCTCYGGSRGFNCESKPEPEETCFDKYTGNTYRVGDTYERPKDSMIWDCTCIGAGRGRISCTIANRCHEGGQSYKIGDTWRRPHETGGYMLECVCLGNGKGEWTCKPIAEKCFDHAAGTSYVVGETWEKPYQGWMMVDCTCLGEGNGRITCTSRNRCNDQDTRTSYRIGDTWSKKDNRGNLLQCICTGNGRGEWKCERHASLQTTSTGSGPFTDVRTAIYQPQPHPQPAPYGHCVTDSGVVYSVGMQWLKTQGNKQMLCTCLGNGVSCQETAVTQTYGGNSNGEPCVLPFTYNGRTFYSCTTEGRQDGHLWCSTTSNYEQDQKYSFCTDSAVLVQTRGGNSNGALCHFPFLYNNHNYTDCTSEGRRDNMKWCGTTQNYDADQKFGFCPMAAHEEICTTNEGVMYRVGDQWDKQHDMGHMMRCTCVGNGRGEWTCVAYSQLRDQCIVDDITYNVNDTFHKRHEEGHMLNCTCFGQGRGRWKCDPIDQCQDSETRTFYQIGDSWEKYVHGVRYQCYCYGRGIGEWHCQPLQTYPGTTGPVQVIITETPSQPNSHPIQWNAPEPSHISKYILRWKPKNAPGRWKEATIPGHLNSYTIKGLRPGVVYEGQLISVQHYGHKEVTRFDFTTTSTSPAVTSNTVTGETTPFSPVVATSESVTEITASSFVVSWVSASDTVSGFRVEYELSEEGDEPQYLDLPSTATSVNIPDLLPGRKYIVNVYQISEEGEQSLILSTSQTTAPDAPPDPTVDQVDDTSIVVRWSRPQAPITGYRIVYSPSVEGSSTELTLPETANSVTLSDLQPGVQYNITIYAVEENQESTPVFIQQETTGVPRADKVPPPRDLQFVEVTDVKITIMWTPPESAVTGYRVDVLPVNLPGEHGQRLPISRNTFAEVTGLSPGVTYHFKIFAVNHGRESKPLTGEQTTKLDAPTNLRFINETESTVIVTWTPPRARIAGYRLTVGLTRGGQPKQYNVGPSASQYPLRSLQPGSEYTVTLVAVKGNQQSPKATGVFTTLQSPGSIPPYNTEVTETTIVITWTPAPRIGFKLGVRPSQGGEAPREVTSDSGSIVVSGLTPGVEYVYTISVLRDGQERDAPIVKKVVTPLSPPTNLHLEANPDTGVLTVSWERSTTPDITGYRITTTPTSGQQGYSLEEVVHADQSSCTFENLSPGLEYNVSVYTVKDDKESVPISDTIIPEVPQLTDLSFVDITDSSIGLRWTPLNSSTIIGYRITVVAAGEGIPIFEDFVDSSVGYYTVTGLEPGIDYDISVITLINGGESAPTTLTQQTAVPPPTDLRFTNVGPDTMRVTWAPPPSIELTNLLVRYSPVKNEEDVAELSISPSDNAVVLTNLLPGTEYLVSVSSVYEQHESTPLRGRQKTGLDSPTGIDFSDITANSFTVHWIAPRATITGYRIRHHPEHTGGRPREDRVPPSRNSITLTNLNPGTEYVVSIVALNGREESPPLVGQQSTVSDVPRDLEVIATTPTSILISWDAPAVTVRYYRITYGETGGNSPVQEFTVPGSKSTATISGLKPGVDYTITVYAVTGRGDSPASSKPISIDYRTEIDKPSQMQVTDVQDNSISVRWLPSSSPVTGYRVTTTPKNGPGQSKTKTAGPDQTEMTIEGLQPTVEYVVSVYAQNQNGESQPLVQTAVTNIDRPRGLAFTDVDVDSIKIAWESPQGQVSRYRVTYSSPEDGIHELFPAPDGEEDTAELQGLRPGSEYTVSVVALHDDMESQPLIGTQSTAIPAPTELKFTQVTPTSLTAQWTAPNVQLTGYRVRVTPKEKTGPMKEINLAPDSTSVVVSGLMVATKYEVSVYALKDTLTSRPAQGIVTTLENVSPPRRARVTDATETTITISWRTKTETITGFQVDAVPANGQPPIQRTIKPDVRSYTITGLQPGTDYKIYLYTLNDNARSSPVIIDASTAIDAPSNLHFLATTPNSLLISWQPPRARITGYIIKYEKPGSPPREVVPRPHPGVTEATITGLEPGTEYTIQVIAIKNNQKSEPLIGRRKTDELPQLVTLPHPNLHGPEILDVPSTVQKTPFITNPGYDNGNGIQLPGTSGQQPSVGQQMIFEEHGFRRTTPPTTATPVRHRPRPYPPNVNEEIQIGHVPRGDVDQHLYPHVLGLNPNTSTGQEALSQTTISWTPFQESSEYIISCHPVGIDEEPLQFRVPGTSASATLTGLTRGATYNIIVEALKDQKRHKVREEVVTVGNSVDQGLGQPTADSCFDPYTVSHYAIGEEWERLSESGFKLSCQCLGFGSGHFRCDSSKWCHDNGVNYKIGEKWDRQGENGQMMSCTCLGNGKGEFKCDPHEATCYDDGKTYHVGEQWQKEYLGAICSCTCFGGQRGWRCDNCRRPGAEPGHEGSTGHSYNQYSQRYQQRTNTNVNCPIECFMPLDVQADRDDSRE

Take “Syndecan-4 overexpressed on T98G glioblastoma cells (receptor)”: the attachment of syndecan-4 overexpressing T98G:S4 cells on fibronectin/tenascin-C substratum in experiment [1] was 64.7%.

With “Full length chicken tenascin-C TN260 (from UniProt P10039 34-1808)”, in experiment [1], the CHO-B2 cells (ITS) attached on FN/TN substratum, 20 h (% of cells attached on fibronectin) came out at 31.5; the CHO-B2α27 cells (ITS) attached on FN/TN substratum, 20 h (% of cells attached on fibronectin) came out at 45.1; the CHO-K1 cells (ITS) attached on FN/TN substratum, 20 h (% of cells attached on fibronectin) was 37.9; the MDA MB 435 cells (insulin) attached on FN/TN substratum, 20 h (% of cells attached on fibronectin) was 62.2. Further, in experiment [1], the MDA MB 435 cells attached on FN/TN substratum, 1 h (% of cells attached on fibronectin) came out at 24.5; the MDA-MB435 cell number on fibronectin/tenascin-C against fibronectin, 51 h worked out at 24 % more cells; the MDA-MB435 cell number on fibronectin/tenascin-C against fibronectin, 75 h is 33 % more cells; the T98G cells (PDGF-BB) attached on FN/TN substratum, 20 h (% of cells attached on fibronectin) amounted to 50.4. Moreover, in experiment [1], the T98G cells attached on FN/TN substratum, 1 h (% of cells attached on fibronectin) came to 31.9 and the T98G cells partially spread on mixed fibronectin/tenascin-C substratum after 20 h was determined as 45%. In experiment [1] (setting [3]), this molecule came in with a DNA replication (3H-thymidine incorporation) of CHO-B2 cells on FN/TN of 2.6, a DNA replication (3H-thymidine incorporation) of CHO-B2α27 cells on FN/TN of 2.5, a DNA replication (3H-thymidine incorporation) of CHO-K1 cells on FN/TN of 2.3 and a DNA replication (3H-thymidine incorporation) of MDA MB 435 cells on FN/TN of 1.8. Also, the DNA replication (3H-thymidine incorporation) of T98G cells on FN/TN in experiment [1] (setting [3]) was determined as 3.

B1: Recombinant 13th fibronectin type III repeat (FNIII13) (other)
chain: NVSPPRRARVTDATETTITISWRTKTETITGFQVDAVPANGQTPIQRTIKPDVRSYTITGLQPGTDYKIYLYTLNDNARSSPVVIDAST
notes: Obtained as in Bloom et al 1999; also called GST-tagged FNIII13; not shown: GST tag and His tag (pulled down with glutathione Sepharose, detected with anti-GST and anti-His, isolated on Ni-NTA)
Turning to B1, in experiment [2], the binding result is recorded as “no binding”.
